The test system of data set [1] is MDA-MB-231 cells. The data set can be described thus: Cancer cell killing, Calcein AM staining. Format: cell-based, human.
The next data set has as its system E0771 cancer cells. The data set can be described thus: ELANE with anti-PD-L1 in a mouse model of TNBC. The class given is in vivo, C57BL/6 mice. Particulars: ELANE 11.6 μg + anti-PD-L1 100 μg. Here is the method: E0771 cancer cells were injected into C57BL/6 mice. Once tumors reached ˜100 mm^3, mice were randomly separated into four groups: ELANE (11.6 μg), PMSF-inactivated ELANE (PMSF-ELANE), anti-PD-L1 (BioXCell, 10F.9G2, 100 μg), and ELANE (11.6 μg)+anti-PD-L1 (100 μg). n=8-9 mice/group. Anti-PD-L1 monoclonal antibody was injected intaperitoneally on days 10, 14, 18, and 22 after tumor inoculation. ELANE or PMSF-ELANE were delivered intra-tumorally when tumors reached ˜[…] (˜ 14 days post cancer cell injection). (FIG. 20A) Tumor volume was measured by calipers. (FIG. 20B) Kaplan-Meier curve was plotted and the logrank test (Mentel-Cox method) was used for mouse survival analysis. End point of survival is defined as tumor volume >1000 mm^3. *, p<0.05, Student's t-test.

A further data set relates to human blood Tcells. The data set can be described thus: Apoptosis of human blood T cells in vitro. Format: cell-based. Here is the method: The efficiency by which these proteases cleaved CD95 was well correlated with their ability to kill cancer cells. Thus, targeting CD95 for degradation offers three important advantages over the FASL and siRNA/shRNA approaches described above. First, unlike the resistance reported with FASL, the inventors have shown that cancer cells are incapable of becoming resistant to this degradative pathway in vitro and in vivo. […] In fact, when tumor bearing mice were treated with ELANE, tumor and splenic T-cells numbers were elevated.

The test system of data set [2] is MDA-MB-231 cells. Nature of the data set: ELANE inactivation by PMSF or A1AT and killing assay. Format: cell-based, human. Particulars: PMSF 100 nM or A1AT 42 nM for 30 mins; 24 hrs. Here is the method:
(FIG. 5A) Purified native ELANE or PMN media was treated with PMSF (100 nM) or alpha-1-anti-trypsin (A1AT; 42 nM) for 30 mins and loss of ELANE catalytic activity was confirmed by a chromogenic substrate assay. Killing assays were performed by treating MDA-MB-231 cells for 24 hrs treatment and assessed by Calcein AM staining. (FIG. 5B) ELANE activity in PMN media was measured by a chromogenic substrate activity assay, and PMN killing was measured by Calcein AM staining on MDA-MB-231 cells exposed to PMN media for 4h.

B1: neutrophil elastase (protein, listed as Homo sapiens)
chain: MTLGRRLACLFLACVLPALLLGGTALASEIVGGRRARPHAWPFMVSLQLRGGHFCGATLIAPNFVMSAAHCVANVNVRAVRVVLGAHNLSRREPTRQVFAVQRIFENGYDPVNLLNDIVILQLNGSATINANVQVAQLPAQGRRLGNGVQCLAMGWGLLGRNRGIASVLQELNVTVVTSLCRRSNVCTLVRGRQAGVCFGDSGSPLVCNGLIHGIASFVRGGCASGLYPDAFAPVAQFVNWIDSIIQRSEDNPCPHPRDPDPASRTH
notes: purified native ELANE
In the case of B1, in the data set on MDA-MB-231 cells [1] (increasing doses, 5h), the “cancer cell killing activity of purified protein” value is “highest cancer cell killing activity”. Also, the “toxicity to cancer cells, ELANE versus PPE” value in the data set on MDA-MB-231 cells [1] (various doses, 6 h) is recorded as “equally toxic to cancer cells”. For the same molecule, the “efficacy with anti-PD-L1” value with E0771 cancer cells is listed as “enables anti-PDL1 efficacy”. In the data set with human blood Tcells, the “apoptosis of human blood T cells” value is “did not induce apoptosis in vitro”. In addition, the “dependence of cancer cell killing on catalytic activity” value in the data set on MDA-MB-231 cells [2] is on record as “catalytic activity is required for its selective cancer cell killing”.

The values are drawn from patent publication US12564623B2, “Methods and compositions for treating cancer” (The University of Chicago, priority 2017, dated 2026).
